Key:
[1] = target: human CCR2 (CC-Chemokine Receptor 2) (human) (UniProt P41597); assay: cell-based or functional assay
murine CCR2 (murine) = murine CCR2 (murine) (UniProt P51683); assay: cell-based or functional assay
Chain of murine CCR2 (murine) (P51683 whole entry): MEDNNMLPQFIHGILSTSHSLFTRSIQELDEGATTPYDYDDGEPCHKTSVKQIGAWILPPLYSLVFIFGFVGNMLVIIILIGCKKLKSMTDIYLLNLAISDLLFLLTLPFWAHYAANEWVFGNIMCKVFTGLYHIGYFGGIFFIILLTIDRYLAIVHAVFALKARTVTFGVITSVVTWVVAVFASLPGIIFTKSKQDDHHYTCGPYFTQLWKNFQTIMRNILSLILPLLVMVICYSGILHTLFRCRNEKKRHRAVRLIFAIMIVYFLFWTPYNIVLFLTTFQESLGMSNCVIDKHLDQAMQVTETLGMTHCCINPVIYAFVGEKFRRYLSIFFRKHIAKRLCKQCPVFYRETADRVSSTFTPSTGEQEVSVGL

Chain of human CCR2 (CC-Chemokine Receptor 2) (human) (P41597 whole entry): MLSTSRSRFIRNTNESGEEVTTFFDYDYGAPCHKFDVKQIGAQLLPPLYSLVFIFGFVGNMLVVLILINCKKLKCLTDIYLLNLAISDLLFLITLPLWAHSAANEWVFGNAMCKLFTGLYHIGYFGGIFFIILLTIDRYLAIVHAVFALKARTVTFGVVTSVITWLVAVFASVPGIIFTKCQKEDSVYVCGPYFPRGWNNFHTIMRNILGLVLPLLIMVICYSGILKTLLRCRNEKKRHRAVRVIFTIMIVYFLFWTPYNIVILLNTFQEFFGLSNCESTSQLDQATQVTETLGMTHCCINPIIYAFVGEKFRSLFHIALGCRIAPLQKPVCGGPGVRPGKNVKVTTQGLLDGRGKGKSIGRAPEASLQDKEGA

| EC50 of MCP-1, MCP-1-induced calcium flux, THP-1 cells [1] [nM] | EC50 of MCP-1, MCP-1-induced calcium flux, primary human monocytes [1] [nM] | EC50 of MCP-1, MCP-1-induced chemotaxis, THP-1 cells [1] [nM] | EC50 of MCP-1, MCP-1-induced chemotaxis, primary human monocytes [1] [nM] | EC50 of mMCP-1, mMCP-1-induced chemotaxis, WEHI 274.1 cells (murine CCR2 (murine)) [nM] | Substance |
| --- | --- | --- | --- | --- | --- |
| 3.3 | 3.79 | 0.8 | 0.389 |  | human MCP-1 (PROSPEC # CHM-271) (from UniProt P13500 24-99) (ligand) |
|  |  |  |  | 0.12 | mMCP-1 (mouse MCP-1) (from UniProt P10148 24-148) (ligand) |
